The values below come from paper PMC3939493, “Structure of the SAS-6 cartwheel hub from Leishmania major” (eLife, 2014).

Data set [1] deals with T1, SAS-6 (Leishmania major, UniProt E9AFQ5).
T1 construct: gene LMJF_35_4280; SAS-6^97–424
T1 sequence (E9AFQ5 97-424): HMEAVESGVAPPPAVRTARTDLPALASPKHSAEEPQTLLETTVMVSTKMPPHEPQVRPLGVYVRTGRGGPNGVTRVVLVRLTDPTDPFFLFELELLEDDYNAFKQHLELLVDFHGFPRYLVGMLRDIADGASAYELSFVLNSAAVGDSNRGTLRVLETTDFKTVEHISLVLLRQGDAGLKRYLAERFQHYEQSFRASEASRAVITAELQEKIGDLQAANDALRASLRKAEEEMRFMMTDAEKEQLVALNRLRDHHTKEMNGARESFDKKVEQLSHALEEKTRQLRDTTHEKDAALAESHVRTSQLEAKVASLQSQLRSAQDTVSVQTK
Briefly: SEC-MALS of purified protein with […] PK9119 (oligomerization reduced). The data set is classed as biochemical. A general note: SEC sorts molecules by how far they enter the pores of the column.

Data set [2] addresses T2, SAS-6 (Danio rerio, UniProt Q7ZVT3, F131D).
T2 construct: gene sass6; Dr SAS-6^1–326
T2 sequence (Q7ZVT3 1-326 F131D): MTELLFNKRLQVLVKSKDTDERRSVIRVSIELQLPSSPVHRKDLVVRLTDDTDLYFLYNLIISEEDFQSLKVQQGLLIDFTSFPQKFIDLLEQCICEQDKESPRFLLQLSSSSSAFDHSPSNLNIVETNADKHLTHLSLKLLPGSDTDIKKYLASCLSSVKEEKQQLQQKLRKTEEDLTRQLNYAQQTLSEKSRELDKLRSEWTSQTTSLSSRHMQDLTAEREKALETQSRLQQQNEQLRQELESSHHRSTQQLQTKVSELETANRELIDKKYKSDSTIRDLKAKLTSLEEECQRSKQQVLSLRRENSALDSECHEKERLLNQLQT
Briefly: SEC-MALS of purified protein with […] PK9119 (oligomerization reduced, less than for L. major). The data set is classed as biochemical.

Data set [3] concerns the target L. major SAS-6^97–274 Y215K mutant (Leishmania major). The experiment in a line: AUC; sedimentation equilibrium; 100, 200 and 400 µM protein; 11300, 17000 and 21200 rpm; 4°C; 50 mM Tris, 100 mM NaCl, pH 8.0; monomer-dimer equilibrium model (dimer to monomers).
Data set [4] deals with L. major SAS-6^97–274 wild-type (Leishmania major). Described as above.
Data set [5] has as its target L. major SAS-6^97–320 F257E (Leishmania major). Briefly: crystal structure; L. major SAS-6^97–320 F257E, sitting drop, 100 mM NaCitrate pH 5.85, 21% PEG-3000, 16°C; 94.7 mg/ml protein; 2.9 Å; four molecules in the asymmetric unit.
The target in data set [6] is L. major SAS-6^97–424 F257E mutant (Leishmania major). Briefly: SEC-MALS; Superdex S-200 10/300, 50 mM bisTris, 100 mM NaCl, pH 7.0, 0.126% DMSO, with or without 1 mM PK9119; L. major constructs injected at 25 mg/ml (675 µM monomer), zebrafish constructs at 10 mg/ml (263 µM monomer); peak concentrations about 10-fold lower.
In data set [7] the target is L. major SAS-6^97–424 wild-type (Leishmania major). Described as above.
Data set [8] concerns the molecule itself. The data set is described as above.

As to `CCc1cc(Br)cc2c(CN(C)C)c[nH]c12` [PK9119, (5-bromo-7-ethyl-1H-indol-3-ylmethyl)-dimethyl-amine], the “SEC-MALS of purified protein with 1 mM PK9119 (oligomerization reduced)” value at SAS-6 [1] is “a decrease in the analysed mass from MALS, demonstrating that PK9119 partially affects head-to-head dimerization”. Further, the “SEC-MALS of purified protein with 1 mM PK9119 (oligomerization reduced, less tha)” value on SAS-6 [2] is on record as “zebrafish SAS-6 oligomerization was also affected by the presence of PK9119, although to a lesser extent”.

The Kd is a measure of binding affinity in units of concentration. In data set [3], “L. major SAS-6^97–274 Y215K mutant (domain or fragment)” gave a dissociation constant Kd of 190 µM.

Take “L. major SAS-6^97–274 wild-type (domain or fragment)”: the Kd in data set [4] stood at 622 µM.

For orientation: stoichiometry N means the number of molecules, sites or subunits per partner or assembly. On to “L. major SAS-6^97–320 F257E (domain or fragment)”, for which, in data set [5], the stoichiometry N stood at 8.

“L. major SAS-6^97–424 F257E mutant (domain or fragment)” displayed a stoichiometry N in data set [6] of 2.

In turn, “L. major SAS-6^97–424 wild-type (domain or fragment)” registered a stoichiometry N in data set [7] of 6.

B1: Danio rerio SAS-6^1–326 F131D mutant (domain or fragment)
chain: GPHMTELLFNKRLQVLVKSKDTDERRSVIRVSIELQLPSSPVHRKDLVVRLTDDTDLYFLYNLIISEEDFQSLKVQQGLLIDFTSFPQKFIDLLEQCICEQDKESPRFLLQLSSSSSAFDHSPSNLNIVETNADKHLTHLSLKLLPGSDTDIKKYLASCLSSVKEEKQQLQQKLRKTEEDLTRQLNYAQQTLSEKSRELDKLRSEWTSQTTSLSSRHMQDLTAEREKALETQSRLQQQNEQLRQELESSHHRSTQQLQTKVSELETANRELIDKKYKSDSTIRDLKAKLTSLEEECQRSKQQVLSLRRENSALDSECHEKERLLNQLQT
notes: Dimer by SEC-MALS; source: E. coli BL21 Rosetta, purified (NiNTA, proteolytic tag cleavage, SEC, ion exchange); not shown: His tag, N-terminal, cleaved
B1: the “stoichiometry N” value in data set [8] was determined as 2.

B2: Danio rerio SAS-6^1–326 wild-type (domain or fragment)
chain: GPHMTELLFNKRLQVLVKSKDTDERRSVIRVSIELQLPSSPVHRKDLVVRLTDDTDLYFLYNLIISEEDFQSLKVQQGLLIDFTSFPQKFIDLLEQCICEQDKESPRFLLQLSSSSSAFDHSPSNLNIVETNAFKHLTHLSLKLLPGSDTDIKKYLASCLSSVKEEKQQLQQKLRKTEEDLTRQLNYAQQTLSEKSRELDKLRSEWTSQTTSLSSRHMQDLTAEREKALETQSRLQQQNEQLRQELESSHHRSTQQLQTKVSELETANRELIDKKYKSDSTIRDLKAKLTSLEEECQRSKQQVLSLRRENSALDSECHEKERLLNQLQT
notes: also called zebrafish SAS-6; source: E. coli BL21 Rosetta, purified (NiNTA, proteolytic tag cleavage, SEC, ion exchange); not shown: His tag, N-terminal, cleaved
On to B2, for which, in data set [8], the binding result is given as “binds”.
